Measurements published in the NTF2 design screens of Basanta et al. (2020).

Assay: protease stability score; higher = more stable; yeast display proteolysis, trypsin and chymotrypsin;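 note: log10 excess protease needed over predicted unfolded state with 0 meaning unfolded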

Sequence	protease stability score
DDDSQNEFLQRVAEAIVTGDEKSLVRMMDPNARANVGDKQFHGREQMARWARELRERVDHLQVDDLQNHNGRLHMDIQFKDNGKNKHFIIQVEAHNGKVTKMSADEK	1.36
DEEIVKLLKRLIKAEKNGNPDEIRKNLDPNVRYVVGERTITGREEFVRDQQRRDDQMRVEFQSVQLRQKGDKAVIHQQAVYRHNGRPKTNHQHISIQAKNGKVKDQKVEVKE	0.069
DEDAVKLAQEVWKAMHTGDEDKFVKLVDPNARVKIGDKDIHGKDDIKKQLHNRNREIRVRLKHIEIDQNGDQARIHMRFQMTHDGQPRDQSATATMRAQGDKLKSISVTNHG	-0.206
DDDASRRFHEFVKLVRTNNPHKAMEMVDPNARFHIGDKEIHGREDVRRWVSRMLREARVTIDLKSLDVQGEKVKVTNLVRRRHNGEPQQMSVHAQVVWHNGKIKQETAHFKG	0.127
EEDLHEAFERIKHALEHGDPKQVQNQFDPNVEVIIGNKTLHGRETLKDEVKKLQDEMQITWRSITINVDGDRVVVHYHIEFRINGQPQSMSYNVDARASNGKIEEMDLRISEDQQKRLNS	0.06
DERAEELVKRIFEALHDGDPQKFVNNIDPNARVNIGDEEIHGRKDAEREIQKRLEHSRVRFDLRSFRVSNGRAEATANVQENHNGRPQTNTVKATFVIHDGRVKEINMQHDG	-0.101
DEKEVKDNAHDLFRAMQTGDEQEIENLMDENVEAQVGDTTWHGREEAARELVLTQKRYDRVRVDRIQVTGEDVKIDFKLNIDGTKETHILVMRVHNGKIVSMSNETR	1.51
DEDALKQMHENLENIKEGDPDKIKKMFDENARVEVGDKVLNGRDQASKFWSELRDQINIHIRDVKLSVSGEEVTINIDARFTHNGQPQTSIFRIEAELHNGTIKSLRVKLDG	2.02
DEHEAEKLLKLLTENDPRQFQNEADKNVRVFYGDKEVHGREQFHTWVQRVRERVDTLEIKRVETRPGRLEVKFRVNVNGQTLEMVLVIVVHNGKIQDVKLHARDHDVMKRWKEAVS	0.82
DEEEIATENAQRFINAVNKNNPDEFVKNMDEDVRIEYGDKVVHGRSQAKHLANEMVDKVDHLTARITDFKVHNGEVDVNVRITFRHNGRNDTHHVRLHLQVHNGRLHIQSMKWS	-0.412
DRHDMHKLEEIWKAIQTGDKDRVKELADPNAEFNVGDKTYHGMDQYITDLKKKRDQMRVHLELQSLDVKNGRARAVAVLRNEHNGTPDQRKFKVNATFRNGRLQHLKLQELS	0.021
DEDITEAVRRLEKAREDGDPNKVRELLPEDARAQYGDKTYHGRDEVAKYRETEMKQMTVQMNIRSVENHNGRADIEFEVTREHNGKPTHDHNRATILAHNGKIKVIEIHSTK	-0.422
DEERDLDIAVEAAKNLLTGNEERFSKMAPPDVRIEYGDKTVHGREQANTAVKEFRDRVDHIEIKRIEKDGNKAHIEFIANVNGHRFTVTMVVDVSNGRVNQVDIRARNKEDQEKMKG	0.06
DEDQMAETLFDEIRKIWETGSEEDAKKMMDPNAHVHVGDKEVTGREEIAKRLHDEAKKADHINLTLEDVEVKGDKAQLHVRFQLHVNGKRDERRIVFVFRNHNGRLIMVTASDS	1.44
DDHAERQARQVQTALKTGDPNQMERMFDENAEVVYGDKRIHGEHEASRVAKRIKEEMRVEYDVRRVTDNEDHVKFHAIIVIDENGKPRTKQLDLTMQQENGKVRLVSFRQDR	-0.048
EDELLHILKEFIQAVNSGDSDKLRELMDPNVKAEYGDKEIHGREEIARQWRQIRHEIKFSWKHLHFEVKGDKLRVDFTVVMDVNGKPKHYRAVLYMKLKNGRITTLHVKMPEEEAKELNK	0.363
DETQLRIASEFEEAVRRGNEEQAKRNVDPNARVRVGDTEVHGNEQIAKKIRQEVEHARVSVKSVTNHTDENRVVIDVEFEATHNGEPTSKKYQVNIEIRNGKIKEINYHDSK	-0.157
DEDMYEQYESILHNERTGNEDEWVENIDPNARIRVGDKEVHGMEDNAREKRRHQEEQRVHFDIKRYSIHNGELDVTAKMRRDVNGQPAQDDVKVRIVVENGRIKEQDQDFDEDDDRRQKK	-0.037
DEEKAQRLMKTLMDYIKNGNADKAQQMLKEGGKVKFGDEEVEGPEEMKKYVKKFKDKGIETHYKEEKFEGNTATVHTEAKLGNAKVEFEAHYEAKGDKVVRAEVKYDEDQYEKFKKS	-0.286
DEEVLEEAKKRVETNDPQEFAHNVDENAEMTIGDKQYTGRDQFKHVADAWYERADKIEIKSYTTHNGKIHVNMRMRFDGRDIVFIVEFRVKNGRVQEYKFHVRDETAKTLQQQMLS	0.231
DEEKMEDFVRKLRTGDPKQMHDNVDKDATLTIGDKKWHGRERVATAIRKWLHRADHVRIDRYDIDGDHVRIDARVTFNGKNLKVVLEYRIHNGKVKSVVLKVTSTEVQRQIDKLLS	1.37
DEDNEKELQREIVRVLKHNDWERFTQLIDEDVRLEYGDQRYHGREQVSKHFTDLAQEVDSVEVTSVKAHNGKINITAILNHNGTNHRYNIRFEFRNGRLKVVRYDHT	1.85
DEEQVNKVRTLVESNDEKTMQELADPNAKAEIGNKRFHGMHRAAHVLTKLRKQADTVRYREIDVHNGQVHAHFSMHFNGKRIDARVVLKVRNGRLRHMKIEATDPHLEEELERQVQ	0.268
DEERAKQLMEKAFKMIRNGNEEVVRKMLKPNGRYEYIDKKFEGEEAAKFVVQLVQKVGAEDKVKRKEVKGDTAKMDFDYHKGDKTVRTTAEVIYKGDKMEQARVELTDEVKKIVHQG	0.046
DEENQKIFDEYVKALRTNNPERLNEMLDPNARVQVGDKEVHGMDDLSRTVNQMIDNLHLNLKIESVHVRGNTLSVDAEYVLNVNGKPQRRSVEIEIHAHNGTVKFLRMRVDPREEQKIKS	0.363

Sequence	protease stability score
DHEELEVVKEWFDAIQKGDPKTIQELADKDAEFQIGDKTVRGREHLVETVERRKKHMEFQIRIDRMDVHGDKAVIDVTMSNKHNGQPSQDRYNVRVELHNGKIQNVDQSKRS	-0.033
DEDDLRRRANEVAEVLHDNDEESMKSLVDPNADIEIGDKRLHGRDDMEKWMQERKRRVDHLTLHSFNVHNGRVDIDARVEVNGQQERYRMVVEFHNGVAKHINFTST	0.569
DERDLKEALDLVKTGDFTRIARMADENVKLKVGDKDVHGREDAKRLMSQLEKQVDHYEIDDVTLEGNSASIDAHFNVNGNRIRFVVVIHVHNGKIKHFTIHVRDEEDKDKLRKDDG	0.799
DENETAKDILKELVDILKNGDEDSFARMFDENARITVGDKTYTGRDEVRKYASQIHRRVDHIDVKLKSVTTNNGRIEVSARFVFQVDGKEDDRIFRLVVRKKGDKWVIERQSLE	1.64
DQEENQKIAERIVKIIQTGDNEKAMKQVDKNVRIRVGEKEYHGRESAREHIREQKEQFDHATVDDMKVQGNKIVLKMRLDVNGVDMDVVIKVTVKNGTIKELHVEYRDREDQQKIES	1.09
DEDLERKAKKYIDALDTGDPDEVSKLVDPNVKFMYGDKTFHGRDQLRRIIQRISDQQRVHVDIKTFSAKGDKVEIKARIEVETDGRPRQFHAIYRMRVHNGKITHISVEMRQ	1.23
DDRDLKRMADVLKTGDPDKLNENADKDAQVHVGNKRVHGREQFHEYQRRLREQIDHLHVKHIEITENKARIDYEFHVNGQKFSFTLTFQAHDGKLKRMSATFTSEEEEKRWDEIVD	0.302
DEDHASRQAKKFIDAMRSGDEELAKNLVDKDVTAIYGDRTVNGREQVMKMVKEFRNQADEITVDDMKVKNGRVVIHLKMDINGEQEVVIVILDIRNGRAKEISFERR	1.27
DERKRATEIAEQIQTILRTGNPKDMRRMADEDVKVDVGDQRIHGRDQLATTLHKLRKRADHIDIKIVSVNAQGDKFVVRQRVRETVNGRVRTFEFVMVLRVHNGREVVKSRHQS	0.225
DDEEHVEEMMRRQQNNYKHGDFEELARQFDPNATVNVGDKTYHGREQIRDWYRKRKEDVDSMDLQVQHFSVDNGRIRIQATERQHFNGQDDSTHFQAEARKHGDKAKLKHFRQQ	-0.052
DDDNKRVVERFLRAQQEGDPDTAKENADENAHFHYGDRRITGRESYAEWMERRKKESRVEFRIDQMNVSGDRIDVHFQMQVRHNGRPERFEARMVIKITNGHIVQVRVEKKE	0.207
DEKRYKELFETVFKMVINGDEEDVKKIINPNGKYQYGDKEFEGPEVAHELVRVVKEMGAEVKETRYEVNGDTARADFKYINGDQEVTTTAEAVYKGDKMEEARVHISEEVKKVLHQG	-0.143
DEDAVRNASTMVEAERRGDENTIQKMMDKHATVKYGDTEVHGREDAARQIRKTHREIRIQVDHYTVEAHNGRVRVEIRVVVNVNGTPYEYHYDYYAEVHNGKFKHIEINVDPDLEDKLKK	-0.16
DDDAQRRVKTYFNLLLTGNPENLKNQVDEDVRVEIGDKEIRGSDQVAHHARQLHTEMRIHARIDDMKVQGDHIRVEVRLYFERNGQPRTKNLRASVRWHNGKMKEFVVKNDD	0.682
DEEEEARKFVKTAQDKARQGNEDQLQNMADKDARVEVGDKVIHGRNEAVKTRREENKRYDRVHNDVQHITLRPGQITIRMRVHVEHNGQRRHREFVFVMHNNNGEWHVEFVEVK	-0.045
DENKENEQFLRNYSKQLKDGNEEQLKRNFDPDAKVRYGDKDVSGREQIQKRIADEARKVDHYEITVKRVEKRGDHVRVEFDVRRHVNGKEESMDVVVIFVKHNGRMVISTVTID	0.036
DHERVKDHATDLAKILRQNNERELKKLADKDVHFQIGDKTYHGREKFEEWVHELINTVDHIRITDFDVDGDRVRIDADFDINGKTVRVVIVVKLKNGKIKSQKVQFRDKDLQRKFNS	-0.152
DEEHQKIAKEALEQIQTGDEDEIKRQFDPNAKLQVGDQSVHGRETAAKFVRDRRRQMRIHLDDVDVKAKNGHVRLMMDVEVDHNGHPTKHRQVMIVKIHNGQIKKMTVNERD	-0.028
DEKQADRAEKFMRALNEGNEDQATRLFDPNAHVVYGDTEVHGRERIRETIRNLQREMSVRYEVHRIEDRNGHVNLHADVTLQHNGRPARYVLTINVRADNGTIVSLNMRVPEEEKEKMKG	0.15
EEQAQENLENLIRAIEHGDHKTAKELMDPNVKFHYGDKQYHGRERVTDFIRTVHEQMDVEIESFDLKLENGRAKAKMTAVYDVNGKPVKISVTYVATVHNGKVKHLQRRVDPSQQREVKG	1.02
DEKRVRRFAHKFIEVIERGDEHELRNLMDPDASMRVGDRTIHGRDEAARTIMKFLKRVDNLEVKSYDAQGDKVDIKVRASHDGKEHRITFDVKVHNGHIRHVTVKID	2.64
DEEVLHLADRWWEAVDRGNERQLKDNADPNVKVRVGDKTIRGRDQMAKEVRHRREEQRVNYHHFRQDVSGDKANVTVHYTREHNGKPETNVIEVVFQAHNGKIVSITVRHDG	-0.148
DHEFAKDAKEVLEENDFEREKQLFDKDASAHIGNTTYHGHEHVQTAIDIRKKRIDHREFHSITIHGDKVDVDLIVQFNGRKIRFDLTIQVHNGRVKEIKFQATNPSQERQLDEIMS	1.12
DEKRYKELADKAFKYIVNGNEEQAIKMLKPNVRYEYVDKEMKGEEAAKEIVQLMQKVGAKVETQEKEVHGDTMRAVFQYHDGDTTVQTTAEVVYKGDKVEKVRVEISEEVKKIVERG	-0.265
DDTHTAEEWFHHLMNILKTNDPDRFANQFDKDARLHYGDTEVRGRENMIEFLRHMVKRIDHQSYTLLQIRVSNGRVEIKVRASMKYDGRVIDDNVEFEADLRGDKIKARQVNIG	0.564
